What was measured:
human IL17A = target: T1, human IL17A (human, UniProt Q16552 24-155); test: ELISA, plates coated with IL17A, serial dilutions of sIL17R, detection with biotinylated anti-IL17RA and streptavidin-HRP
T1 construct: also called interleukin-17A
T1 sequence (looked up): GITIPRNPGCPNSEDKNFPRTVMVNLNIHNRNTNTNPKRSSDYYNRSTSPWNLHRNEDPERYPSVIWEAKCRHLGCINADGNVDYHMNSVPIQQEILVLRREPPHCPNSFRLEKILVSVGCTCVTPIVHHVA
Protocol: (§1) For sIL17R binding to IL17A, ELISA plates were coated with 100 μg/ml human IL17A or mouse IL17A overnight, then blocked with 1% BSA. Serial two-fold dilutions of sIL17R were added in triplicate to the plate and incubated for 1 h at 37° C. Unbound receptor was washed from the plate in an ELISA plate washer. 100 μl biotinylated anti-IL17RA (1 μg/ml) was added to each well and incubated 1 h at room temperature and excess antibody was washed away. Each well was incubated with streptavidin-HRP conjugate and washed. Bound HRP was measured by incubation with TMBD substrate for 20 minutes followed by addition of acid stop solution. OD was measured at 450 nm.

mouse IL17A = target: T2, mouse IL17A (mouse, UniProt Q62386 26-158); test: as above
T2 construct: also called recombinant mouse Il17a
T2 sequence (looked up): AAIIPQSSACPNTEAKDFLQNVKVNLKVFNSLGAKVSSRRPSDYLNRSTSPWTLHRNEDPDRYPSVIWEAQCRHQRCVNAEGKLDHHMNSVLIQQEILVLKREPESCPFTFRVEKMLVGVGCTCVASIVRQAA
Protocol: as §1

B1: sIL17R-9gly-CH3 (soluble human IL-17 receptor A linked by nine glycines to the CH3 domain of human IgG1) (Fc fusion)
chain: SLRLLDHRALVCSQPGLNCTVKNSTCLDDSWIHPRNLTPSSPKDLQIQLHFAHTQQGDLFPVAHIEWTLQTDASILYLEGAELSVLQLNTNERLCVRFEFLSKLRHHHRRWRFTFSHFVVDPDQEYEVTVHHLPKPIPDGDPNHQSKNFLVPDCEHARMKVTTPCMSSGSLWDPNITVETLEAHQLRVSFTLWNESTHYQILLTSFPHMENHSCFEHMHHIPAPRPEEFHQRSNVTLTLRNLKGCCRHQVQIQPFFSSCLNDCLRHSATVSCPEMPDTPEPIPDYMTGGGGGGGGGQPREPQVYTLPPSRDELTKNQVSLTCLVKGFYPSDIAVEWESNGQPENNYKTTPPVLDSDGSFFLYSKLTVDKSRWQQGNVFSCSVMHEALHNHYTQKSLSLSPG
notes: also called sIL17RA-9gly-CH3; sIL17R-9G-CH3
- binding result (human IL17A): binds
- binding result (mouse IL17A): binds
